One test relates to S. enteritidis. The test can be described thus: Radial diffusion (inhibition zone) assay. It is filed as cell-based. As to the method:
(§1) Antimicrobial assays. E. coli (ATCC 25922), Pseudomonas aeruginosa (ATCC 8427), Salmonella typhimurium (ATCC 13311), Proteus vulgaris (ATCC 8427), Staphylococcus epidermidis (ATCC 12228), and MRSA (ATCC 33591) isolates were maintained on trypticase soy broth (TSB) agar plates. Individual colonies were selected and cultured overnight in TSB, subcultured once at 1:50 in fresh TSB, and then grown to stationary phase for use in all experiments. The radial diffusion assay was performed in 0.5% agarose and 0.75% tryptone brought to ebullition and cooled to 43° C., and then mixed with […] of bacterial suspension and poured into a 10 cm Petri dish. A series of small wells (diameter, 3 mm) were punched in the plate after the agarose solidified. Two microliters of test samples were applied in each well. Plates were incubated at 37° C. overnight to allow visible growth of bacteria. Antibacterial activity was indicated by the clear zone (no bacterial growth) around the well.
(§2) Antimicrobial activity of recombinant cathelin-like protein. Recombinant cathelicidins were tested for antimicrobial activity using a standard radial diffusion assay. Different concentrations of the cathelin-like protein were loaded into wells on assay plates containing Gram-positive MRSA, S. epidermidis, and strains of the Gram-negative bacterial species E. coli, S. enteritidis, P. vulgaris, and P. aeruginosa. […] Similarly, cathelin-like protein inhibited growth of S. epidermidis ([…]) but not S. enteritidis or P. vulgaris.

Test [1] deals with Proteus vulgaris (ATCC 8427). Nature of the test: Radial diffusion (inhibition zone) assay. To be noted: P. vulgaris. It is filed as cell-based. As to the method:
as §1, §2

In test [2] the test system is Pseudomonas aeruginosa (ATCC 8427). The test can be described thus: Radial diffusion (inhibition zone) assay. The test is classed as cell-based. As to conditions: P. aeruginosa. As to the method:
as §1, §2

Another test relates to E. coli (ATCC 25922). The test can be described thus: Radial diffusion (inhibition zone) assay. It is filed as cell-based. As to the method: as §1, §2
For test [3], the system named is Staphylococcus epidermidis (ATCC 12228). Nature of the test: Radial diffusion (inhibition zone) assay. It is filed as cell-based. To be noted: S. epidermidis. As to the method: as §1, §2
The next test deals with MRSA (ATCC 33591). The test can be described thus: Radial diffusion (inhibition zone) assay. It is filed as cell-based, Staphylococcus aureus. As to conditions: MRSA. As to the method: (§3) FIGS. 3A–C show Growth inhibition of MRSA, E. coli, and P. aeruginosa by cathelin-like protein. (a) Inhibition zone ssay on tryptone/agarose plates with MRSA. Clear circles show lack of bacterial growth. Lanes 1, 3, 5, bottom row: cathelin-like protein at […], 16 μM, respectively. Lane 2, top row:[…] of His-tagged cathelin-like protein before cleavage. Lane 4, top: enterokinase enzyme alone. All assays were performed in duplicate and repeated three times. (b), (c) CFU assay: growth inhibition of (b) MRSA and (c) E. coli, cultured in 10 mM phosphate and 1% TSB (pH 7.4) and then supplemented with different concentrations of human cathelin-like protein.
as §1, with “A series of small wells (diameter, 3 mm) were punched in the plate after the agarose solidified. Two microliters of test samples were applied in each well. Plates were incubated at 37° C. overnight to allow visible growth of bacteria. Antibacterial activity was indicated by the clear zone (no bacterial growth) around the well.” left out

Another test has as its target T1, human liver cathepsin L (Homo sapiens, UniProt P07711).
T1 construct: human liver cathepsin L (Calbiochem, Calif.); purchased Calbiochem; host or cells: human liver
The test can be described thus: Proteinase activity inhibition assay (hydrolysis of Z-Phe-Arg-AMC). The test is classed as biochemical. As to the method: FIG. 2 show the proteinase inhibitory activity of recombinant cathelin-like protein. Hydrolysis of the fluorogenic substrate Z-Phe-Arg-AMC by cathepsin L (protease alone), and in the presence of cathelin-like protein (protease+cathelin). […] Slopes, intercepts, and correlation coefficients were calculated by linear regression. Data were recorded 10 times over 30 min and are representative of two experiments.
Proteinase activity inhibition assay. Proteinase inhibitory activity of recombinant cathelin-like protein was assayed spectrofluorometrically by measuring its inhibitory action against human liver cathepsin L (Calbiochem, Calif.). For the reaction assay, cathepsin L (0.1 mU) in the assay buffer ([…] sodium acetate, 60 mM acetic acid, 8 mM dithiothreitol, and 4 mM EDTA, pH 5.5, supplemented with 0.1% BRIJ 35) was preincubated for 2 min at 30° C. with 10^−6 M cathelin-like protein before adding […] of substrate Z-Phe-Arg-7-amido-4-methylcoumarin (Calbiochem). When hydrolyzed by cathepsin L, this substrate releases highly fluorescent 7-amido-4-methylcoumarin (AMC). AMC intensity was determined using spectrophotometer at 370 nm excitation and an emission wavelength of 460 nm. One unit was defined as the amount of enzyme that will hydrolyze 1.0 mmol of Z-Phe-Arg-AMC per min at 25° C., pH 5.5.
Proteinase inhibitory activity. To evaluate the possible protease inhibitory activity action of cathelin-like protein, the activity of human cathepsin L was measured in the presence or absence of recombinant cathelin-like protein using the fluorescent substrate Z-Phe-Arg-AMC.

The next test deals with MRSA. The test can be described thus: Colony-forming assay (CFU), liquid phase. As to conditions: 10 mM phosphate, 1% TSB, pH 7.4. It is filed as cell-based, Staphylococcus aureus. As to the method: as §3
(§4) The colony-forming assay (CFU) was performed. Bacterial cultures (E. coli or MRSA) were collected at the logarithmic phase of growth in TSB, washed twice with phosphate-buffered saline, pH 7.4, and diluted to 104 CFU per ml in 10 mM phosphate buffer, pH 7.4, Na2HPO4/NaH2PO4-1% TSB (g per 1). Forty-five microliters of bacterial suspension were mixed with […] of H2O (control) or with […] of different concentrations of cathelin-like proteins, and the mixture was incubated at 37° C. Every 30 min, a […] aliquot of the reaction mixture was plated directly onto a TSB agar plate and then incubated at 37° C. overnight for enumeration of CFU. Data are reported as growth index=final CFU/CFU in initial inoculum. […]

The subject of a further test is E. coli. The test can be described thus: Colony-forming assay (CFU), liquid phase. The test is classed as cell-based. Also noted: unit of the concentration uncertain. To be noted: 10 mM phosphate, 1% TSB. As to the method: as §3, §4

T1 sequence (P07711 114-288 limits assumed): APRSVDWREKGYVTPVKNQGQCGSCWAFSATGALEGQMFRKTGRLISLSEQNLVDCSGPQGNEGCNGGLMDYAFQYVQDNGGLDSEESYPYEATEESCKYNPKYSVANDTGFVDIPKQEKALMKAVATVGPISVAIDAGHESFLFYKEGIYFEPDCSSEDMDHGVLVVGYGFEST
T1 sequence (P07711 292-333 limits assumed): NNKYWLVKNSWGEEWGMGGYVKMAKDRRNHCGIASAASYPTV

B1: hCAP18/LL-37: recombinant human full-length cathelicidin, residues 31-170 of SEQ ID NO:2, inactive precursor (protein, listed as Homo sapiens)
chain: QVLSYKEAVLRAIDGINQRSSDANLYRLLDLDPRPTMDGDPDTPKPVSFTVKETVCPRTTQQSPEDCDFKKDGLVKRCMGTVTLNQARGSFDISCDKDNKRFALLGDFFRKSKEKIGKEFKRIVQRIKDFLRNLVPRTES
On to B1, for which the “minimal inhibitory activity against growth, concentration” value (in the test on S. enteritidis; in [1]; in [2]; with E. coli (ATCC 25922); in test [3]; with MRSA (ATCC 33591)) was “greater than 64 mM” each time. Moreover, the “cathepsin L inhibitory activity” value in the test with human liver cathepsin L (parallel experiments) was “did not demonstrate inhibitory activity”. Further, the “effect on growth (CFU)” value with MRSA is “did not show any activity”; in the test on E. coli (32 (unit uncertain), pH 7.4), “did not show any activity”.

B2: cathelin-like protein: recombinant human cathelin-like domain of hCAP18, residues 31-131 of SEQ ID NO:2, expressed in E. coli, His-tag cleaved by enterokinase (protein, listed as Homo sapiens)
chain: QVLSYKEAVLRAIDGINQRSSDANLYRLLDLDPRPTMDGDPDTPKPVSFTVKETVCPRTTQQSPEDCDFKKDGLVKRCMGTVTLNQARGSFDISCDKDNKR
In the case of B2, the “growth inhibition” value in the test with S. enteritidis is reported as “not”; in test [1], “not”; in test [2], “did not inhibit growth”. The “minimal inhibitory activity against growth, concentration” value in the test with E. coli (ATCC 25922) came out at 16 mM; in test [3], 32 mM; in the test with MRSA (ATCC 33591), 32 mM. Further, in the test with human liver cathepsin L (cathepsin L + cathelin-like protein, cathepsin L alone slope 1.31), the “slope of fluorescence generation (linear regression)” value was 0.71. Moreover, the “hydrolytic activity of cathepsin L inhibited by” value with human liver cathepsin L (protein added at final concentration of 10^-6 M, substrate Z-Phe-Arg-AMC) was determined as 46%. In addition, the “effect on growth (CFU)” value in the test with MRSA (concentration not given) is “decreased MRSA CFU for the first 15 min and then was bacteriostatic”; in the test with E. coli (16 (unit uncertain), pH 7.4, compared to untreated controls), “marked growth inhibition”.

Source of the values: US7173007B1, “Therapy for microbial infections” (The Regents of the University of California, priority 2003, dated 2007).
